The values that follow are results of earlier work, collected in PMC11313252.

The Kd is the concentration at which binding is half-saturated.

The data set has as its target EGFR (Homo sapiens) (UniProt P00533).

With EGF (from UniProt P01133), the Kd is 2 nM.
